The values below come from patent publication US20030138873A1, “Tissue engineered cartilage for drug discovery” (priority 2002, published 2003).

The subject of assay [1] is engineered cartilage tissue. In words: Cartilage matrix turnover measured using radiolabelling (35S-proteoglycan chase). It counts as cell-based, bovine. The following applies: for T½ of 35S-PGs in the tissue (loss of 35S-PGs) / T½ of 35S-PGs, bimodal rate of disappearance from the tissue: IL-1α 1 ng/ml; for T½ of 35S-PGs in the tissue (loss of 35S-PGs): 7-day chase; for T½ of 35S-PGs, bimodal rate of disappearance from the tissue: double exponential decay fit. The method, then:
(§1) Engineered Cartilage Tissue Formation: Engineered cartilage tissue was prepared as described in U.S. Pat. No. 6,197,061. Briefly, bovine articular chondrocytes were isolated from steer (14-18 months) and cultured in beads of 1.2% low viscosity alginate (Keltone LV, Kelco) at 4 million cells/ml in daily changes of medium containing 20% FBS, 25 μg/ml ascorbate and 10 μg/ml gentamicin, as described above in Mok, et al. On day 7, beads were dissolved by incubation for 20 minutes in 55 mM NaCitrate in 150 mM NaCl. The cells with their CM (cellular matrix) were recovered by mild centrifugation. The cells with their CM were resuspended in complete medium and seeded onto a tissue culture insert (0.4 μm pore size; 23 mm diameter, Falcon). After 7 and 21 days in culture, the de novo formed tissue was separated from the porous membrane and 4 mm diameter discs were punched out using a skin biopsy punch.
Discs of engineered cartilage tissue were punched out from engineered cartilage tissue on day 7 and 21 and were incubated for 16 h in complete medium containing ^35S-sulfate (20 μCi/ml). After washing to remove unincorporated radioisotope, the discs were cultured for 7 days in isotope-free medium with or without IL-1α (1 ng/ml). The medium in all cases was changed and collected for the measurement of ^35S-labeled proteoglycans (^35S-PGs). At various times, discs were collected and the content of ^35S-PGs in each disc and the corresponding spent medium fraction was measured by a rapid filtration assay (4). For each set of conditions (i.e. with or without IL-1α) the amount of radiolabeled PGs remaining in each matrix pool was plotted against time of chase to measure the average half-life of ^35S-PGs in each compartment. The data were fitted to the double exponential decay equation: y=ae^−bx+ce^−d+e and the half-life calculated based on b and d. Mok, et al., Aggrecan synthesized by mature bovine chondrocytes suspended in alginate: Identification of two distinct metabolic matrix pool, Biol. Chem., 269, 33021-33027 (1994)

For assay [2], the system named is engineered cartilage tissue. The assay is described as follows: Cartilage matrix turnover measured without radiolabelling (PG content by DMMB method). It counts as cell-based, bovine. The protocol: as §1
Discs of engineered cartilage tissue was punched out from engineered cartilage tissue on day 7 and cultured for 5 days in complete medium with/without IL-1α (1 ng/ml). Engineered cartilage tissue was obtained as described above. On days 1, 2, 3 and 5, the discs were harvested and digested with papain. After digestion the contents of sulfated PG and DNA were measured by the DMMB method and Hoechst 33258-dye method, respectively. […]

[3] abbreviates: tissue radiolabeled on day 7 [1W].
Where [4] appears, read: tissue radiolabeled on day 21 [3W].

B1: IL-1: cytokine interleukin-1 (IL-1α), known modulator inducing cartilage matrix degradation, used at 1 ng/ml (protein, UniProt P01583 113-271, looked up)
Interleukin-1 alpha: SAPFSFLSNVKYNFMRIIKYEFILNDALNQSIIRANDQYLTAAALHNLDEAVKFDMGAYKSSKDDAKITVILRISKTQLYVTAQDEDQPVLLKEMPEIPKTITGSETNLLFFWETHGTKNYFTSVAHPNLFIATKQDYWVCLAGGPPSITDFQILENQA
Consider B1, for which, in assay [1] (setting [3]), the “T½ of 35S-PGs in the tissue (loss of 35S-PGs)” value was found to be 41.5 h and the “T½ of 35S-PGs, bimodal rate of disappearance from the tissue” value turned out to be 3.6 h. In assay [1] (setting [4]), the “T½ of 35S-PGs in the tissue (loss of 35S-PGs)” value is 49.9 h and the “T½ of 35S-PGs, bimodal rate of disappearance from the tissue” value was 35.5 h. For the same molecule, the “appearance in the medium of 35S-PGs” value in assay [1] (addition of IL-1 to the medium (1 ng/ml)) is “rapid increase”. Besides, the “loss of the PGs from the engineered cartilage tissue” value in assay [2] (IL-1 at 1 ng/ml, single day of treatment, day 7 discs) is recorded as 50%. For the same molecule, the “loss of proteoglycan content of engineered cartilage matrix” value in assay [2] (within a single day after treatment with IL-1) is reported as “roughly half”.
